Legend:
[1] = test system: PCD28.1.S2.1 cells (human CD28, lacZ fused to the IL-2 promoter); test: FDG assay for IL-2 promoter activity (lacZ reporter); type: cell-based, murine; details: added directly to PC28.1.s2.1 cells in solution (FIG. 20A)
Procedure: A second assay for agonist activity measured induction of IL-2 promoter activity, rather than production of IL-2 protein. The PCD28.1.S2.1 cells described above also contain lacZ fused to the IL-2 promoter. Thus, the PCD28.1.S2.1 cell line provides a convenient system for measuring IL-2 promoter activity upon CD28-mediated T cell simulation. T cells were activated as described above for the CTLL-2 assay, spun down, resuspended in 50 μl of media+50 μl of PBS, lysed with 10 μl of 20% Triton X-100, and supplemented with 25 μl of 10 mM FDG (Molecular Probes), a fluorogenic substrate for b-galactosidase. Hydrolysis of FDG first yields fluorescein monogalactoside (FMG) and then the highly fluorescent product fluorescein. Cell lysates were incubated with FDG for 60 min., and the levels of fluorescence were measured by Fluoroscan (MTX Lab Systems, Inc).
(§1) IL-2 promoter activity and IL-2 levels were measured similarly to that described in parts A and B above, except that proliferation of the reader CTLL-2 cells was measured by ^3H-thymidine incorporation.

[2] = target: T1, human CD28 on PCD28.1.s2.1 cells (Homo sapiens, UniProt P10747); test: Flow cytometry binding to cells expressing cell-surface CD28; type: cell-based; details: on ice
T1 construct: expressed in transfected cells; host or cells: PCD28.1.s2.1 (PE30.2 murine T-cell hybridoma transfected with pHbactCd28neo)
Procedure: Non-adherent CD28 expressing cells (PCD28.1.s2.1) were used for this assay format. PCD28.1.S2.1 cells were created by transfection of PE30.2 cells [D. Emilie et al., Eur. J. Immunol., 19:1619-1624 (1989)] with a vector for expression of human CD28 [D. Couez et al., Molecular Immunology, 31:47-57 (1994)]. All incubations were carried out on ice. Unlabelled CD80- and CD86-Igαtp or CD80 and CD86-Ig were incubated with the cells in binding buffer consisting of PBS w/o Ca+2/Mg+2, 0.2% bovine serum albumin and 0.1 % sodium azide. After washing twice in binding buffer, bound fusion proteins were detected with a 1:2000 dilution of a goat anti-human polyclonal antibody labeled with FITC (Flourescein isothiocyanate, Southern Biotech). Following two additional washes in binding buffer, the cells were resuspended in binding buffer and analyzed on a FACSort analyzer (Becton-Dickinson) using a 488 nm laser.

[3] = test system: murine T-cell hybridoma cell lines expressing human CD28 (PCD28.1.s2.1, DCL27CD28wt.s2); test: IL-2 production by CD28 T-cell hybridomas (CTLL-2 bioassay); type: cell-based
Source text: The CD80- and CD86-Igαtp proteins were compared to the corresponding CD80 and CD86-Ig proteins to determine their ability to stimulate cells expressing human CD28 using two murine T-cell hybridoma cell lines expressing human CD28, PCD28.1.s2.1 and DCL27CD28wt.s2. The PCD28.1.s2.1 cell line was described in Example 1, part 3. The DCL27CD28wt.s2 cell line was created by transfection of the DC27 cell line [F. Pages et al., Nature, 369:327-329 (1994); F. Pages et al., J. Biol. Chem., 271(16):9403-9409 (1996)] with the same CD28 expression vector used for the PCD28.1.s2.1 cells [D. Couez et al., Molecular Immunology, 31:47-57 (1994)]. These cell lines were examined for their ability to produce IL-2 in response to activation with CD80- and CD86-Ig in comparison with the corresponding Igαtp fusion proteins. 96-well plates were coated with or without a CD3 antibody together with the CD80 and CD86 fusion proteins. This was accomplished by first incubating the plates with a previously determined suboptimal concentration of hamster […] CD3 antibody (MAb 145-2C11, Boerhinger-Mannheim Biochemicals) for two hours at room temperature (RT) or with just buffer alone, washing the plates with PBS, adding goat anti-human Ig heavy chain (GAH-IgHc, Sigma Chemical Co.) for an additional two hours at RT, washing again and coating with different concentrations of the CD80 or CD86 fusion protein for 16-18 hours at 4° C., washing again, and finally blocking for 30 min. with 0.2% BSA-PBS. […] T cells were incubated in the wells for 24 hours at 37° C., and supernatants were collected and evaluated for IL-2 levels in a standard CTLL-2 bioassay [S. M. Gillis et al., J. Immunol., 120:2027 (1978)]. […] OD570 readings were converted into ng/ml of IL-2 based on a standard curve generated by treating cells with known concentrations of IL-2.
as §1

CD28-Ig = target: T2, CD28-Ig (Homo sapiens, UniProt P10747); test: Isothermal titration calorimetry, binding to CD28-Ig in solution
T2 construct: native leader and extracellular domain peptide of CD28 and CD80 were grafted onto a human IgG1 heavy chain Fc region; human IgG1 Fc (hinge/CH2/CH3); made in house; host or cells: CHO cells
Source text: The solution binding properties of the hexameric and standard Ig fusion proteins of CD80 and CD86 were compared using isothermal titration calorimetry, essentially as described previously for other proteins [K. Johanson et. al., J. Biol. Chem, 270: 9459-9471 (1995), and references therein].
This lower affinity for CD28 than for CTLA4 is in agreement with other reports [P. S. Linsley et. al., Immunity 1: 793-801 (1994)].

binding to CD28 positive cells [2]: no binding | interaction with CD28-Ig in solution by calorimetry (CD28-Ig): not detected
B1: CD86-Ig: binding protein/Fc construct for CD86 with human IgG1 Fc (protein)
chain: APLKIQAYFNETADLPCQFANSQNQSLSELVVFWQDQENLVLNEVYLGKEKFDSVHSKYMGRTSFDSDSWTLRLHNLQIKDKGLYQCIIHHKKPTGMIRIHQMNSELSVLANFSQPEIVPISNITENVYINLTCSSIHGYPEPKKMSVLLRTKNSTIEYDGIMQKSQDNVTELYDVSISLSVSFPDVTSNMTIFCILETDKTRLLSSPFSIELEDPQPPPDHEPKSADKTHTCPPCP
modifications: left off: a dimerising Fc or GST
IL-2 promoter activity [1]: no stimulation | IL-2 production ([3]; added directly to PC28.1.s2.1 cells in solution, CTLL-2 3H-thymidine incorporation (FIG. 20B)): no stimulation | IL-2 response ([3]; cross-linked with GAH antibody, no CD3 antibody): did not give a response | IL-2 production ([3]; soluble protein, absence of CD3 crosslinking): no activity

From patent US20020147326A1, “Hexameric fusion proteins and uses therefor” (SmithKline Beecham Corporation, priority 1996, published 2002)
